The data set concerns the molecule itself. In words: non-reducing SDS-PAGE with Western blot; pure control proteins and chromatography fractions separated on SDS-PAGE without or with DTT, blotted with anti-TXNL1 or anti-Trx1.

B1: Thioredoxin (Trx1), human (natural protein, UniProt P10599-1 1-105, looked up)
chain: MVKQIESKTAFQEALDAAGDKLVVVDFSATWCGPCKMIKPFFHSLSEKYSNVIFLEVDVDDCQDVASECEVKCMPTFQFFKKGQKVGEFSGANKEKLEATINELV
notes: also called TXN; not shown: His6, N-terminal, cleaved; GFP, N-terminal, cleaved; SUMO, N-terminal, cleaved
As for B1, the binding result is “binds”.

B2: Thioredoxin-like protein 1 (TXNL1), human, wildtype (natural protein, UniProt O43396 1-289, looked up)
chain: MVGVKPVGSDPDFQPELSGAGSRLAVVKFTMRGCGPCLRIAPAFSSMSNKYPQAVFLEVDVHQCQGTAATNNISATPTFLFFRNKVRIDQYQGADAVGLEEKIKQHLENDPGSNEDTDIPKGYMDLMPFINKAGCECLNESDEHGFDNCLRKDTTFLESDCDEQLLITVAFNQPVKLYSMKFQGPDNGQGPKYVKIFINLPRSMDFEEAERSEPTQALELTEDDIKEDGIVPLRYVKFQNVNSVTIFVQSNQGEEETTRISYFTFIGTPVQATNMNDFKRVVGKKGESH
notes: human TXNL1, open reading frame synthesised codon-optimised for E. coli; N-terminal Trx-fold domain (active site CGPC) and C-terminal PITH domain; also called TRP32; thioredoxin related protein of 32 kDa; not shown: His6, N-terminal, cleaved; GFP, N-terminal, cleaved; SUMO, N-terminal, cleaved
As for B2, the binding result is given as “binds”.
